This is an account of results in US20150203556A1 (UAB RESEARCH FOUNDATION, published 2015).

The chains are these.
B4: IL-20R1-FC (Fc fusion)
chain: VPCVSGGLPKPANITFLSINMKNVLQWTPPEGLQGVKVTYTVQYFIYGQKKWLNKSECRNINRTYCDLSAETSDYEHQYYAKVKAIWGTKCSKWAESGRFYPFLETQIGPPEVALTTDEKSISVVLTAPEKWKRNPEDLPVSMQQIYSNLKYNVSVLNTKSNRTWSQCVTNHTLVLTWLEPNTLYCVHVESFVPGPPRRAQPSEKQCARTLKDQSSEFKAKGSGGGGPSVFIFPPKIKDVLMISLSPIVTCVVVDVSEDDPDVQISWFVNNVEVHTAQTQTHREDYNSTLRVVSALPIQHQDWMSGKEFKCKVNNKDLPAPIERTISKPKGSVRAPQVYVLPPPCEEMTKKQVTLYCMVTDFMPEDIYVEWTNNGKTELNYKNTEPVLDSDGSYFMYSKLRVEKKNWVERNSYSCSVVHEGLHNHHTTKSFSRTPGKGLEASGGLNDIFEAQKIEWHEGTGHHHHHH
notes: also called IL-20R-fc

Assay [1] deals with T1, IL-20R1 triple mutant M3 (UniProt Q9UHF4 29-245).
T1 construct: range 29-245; also called IL-20R1 site 3 mutant
T1 sequence (looked up): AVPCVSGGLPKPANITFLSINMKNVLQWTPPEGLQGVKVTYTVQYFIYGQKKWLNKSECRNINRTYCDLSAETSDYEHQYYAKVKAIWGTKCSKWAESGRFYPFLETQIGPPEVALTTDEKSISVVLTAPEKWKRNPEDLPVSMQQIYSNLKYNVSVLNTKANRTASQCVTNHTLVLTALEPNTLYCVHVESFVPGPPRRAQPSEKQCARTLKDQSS
The experiment in a line: SPR, IL-19 co-injected with M3 over an IL-20R2 coupled Biacore chip. The method, then:
FIGS. 9A-9D show the IL-20 site 3 interface is essential and distinct from other complexes. FIG. 9A is a ribbon diagram showing the site 3 interface between IL-20R1 and IL-20R2. FIG. 9B is a graph showing the importance of the site 3 interface in ternary complex formation. SPR sensograms obtained by injecting cytokines (IL-19 or IL-20, at 250 nM) and/or receptors (IL-20R1 or M3, at 425 nM), as labeled on the figure, over an IL-20R2 coupled biacore chip. Injection of IL-20+IL-20R1 results in a large response consistent with ternary complex formation. However, injection of IL-20+M3, an IL-20R1 site 3 mutant with S190^IL-20R1, W194^IL-20R1, and W207^IL-20R1 mutated to alanine drastically reduces binding due to disruption of ternary complex formation. Similar results are observed for complex formation by IL-19. FIG. 9C is a ribbon diagram of the superposition of the D2 domains of GHR site 1, IL-6R, and IL-20R1. The positions of the D2 domains of GHR site2, GP130, and IL-20R2 are shown, along with a schematic of the differences in their orientations. FIG. 9D is a ribbon diagram showing the putative model of the IL-22/IL-22R1/IL-10R2 complex based on the IL-20 ternary complex structure. […]

For assay [2], the target named is T2, IL-19 (human, UniProt Q9UHD0 25-177).
T2 construct: also called Interleukin-19; IL-19a
T2 sequence: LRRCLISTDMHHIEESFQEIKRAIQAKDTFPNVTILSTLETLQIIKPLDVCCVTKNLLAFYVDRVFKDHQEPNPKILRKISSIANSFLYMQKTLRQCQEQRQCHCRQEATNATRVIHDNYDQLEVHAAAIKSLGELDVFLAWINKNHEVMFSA
The experiment in a line: SPR (Biacore), IL-19 over amine coupled IL-20R2, 1:1 fit. As to the method: (§1) FIGS. 12A-12H are graphs showing IL19/IL-20 receptor interactions and complex stability. SPR sensorgrams, data fits (black lines), KD values, and residual errors obtained for complexes described at the top of each panel. Panels are labeled as injected soluble proteins, followed by a semicolon (:), then the protein coupled to chip surface, IL-20R1 or IL-20R2. FIGS. 12A and 12B show injection of IL-19 and IL-20 (max conc.=10 μM, 2 fold diluted to 0.625 μM) over IL-20R1. FIGS. 12C and 12D show injection of IL-19 (max conc.=500 nM, 2-fold diluted to 3.91 nM) or IL-20 (max conc.=2000 nM, 2-fold diluted to 62.5 nM) over IL-20R2. FIGS. 12E-12H show IL-19 and IL-20 (fixed at 250 nM) mixed with different concentrations of IL-20R1, or IL-22R1, (max conc.=1000 nM, 2-fold diluted to 7.81 nM) and injected over IL-20R2. To estimate R1 chain affinity/complex stability, the contribution of the ligand was removed by using the 250 nM IL-19, or IL-20, sensorgram as the blank subtraction. All sensorgrams were fit to 1:1 binding models.
Surface Plasmon Resonance Experiments SPR experiments were performed on Biacore T-100, and T-200, (GE healthcare, Waukesha, Wis.) systems. Soluble IL-20R2 was amine coupled (100-130 RU) to CM5 research grade biacore chips in 10 mM sodium acetate, pH 5.0. IL-20R1-FC and IL-20R2-FC were coupled (60-120 RU) to CM5 chips using an anti-FC Ab coupling kit using the manufacturer's instructions (GE healthcare, Waukesha, Wis.). All binding experiments were performed in running buffer consisting of 10 mM Hepes, pH 7.4, 150 mM NaCl, 0.04% P20, and 0.1 mg/mL bovine serum albumin (Sigma, St. Louis, Mo.). No regeneration was performed between sample injections on IL-20R2 amine-coupled surfaces. IL-20R1-FC and IL-20R2-FC surfaces were regenerated after each sample injection with a 3-minute injection of glycine, pH 1.7. Soluble proteins were injected for 75-90 seconds (30 uL/min) over the surfaces, and the dissociation phase was followed for 75-120 seconds depending on the stability of the complex being analyzed. […]
A general note: SPR reads the build-up and loss of mass on a sensor chip optically.

Assay [3] has as its target T3, IL-20 (human, UniProt Q9NYY1 25-176).
T3 construct: The crystal model holds residues 24-176; also called Interleukin-20; IL-20b
T3 sequence: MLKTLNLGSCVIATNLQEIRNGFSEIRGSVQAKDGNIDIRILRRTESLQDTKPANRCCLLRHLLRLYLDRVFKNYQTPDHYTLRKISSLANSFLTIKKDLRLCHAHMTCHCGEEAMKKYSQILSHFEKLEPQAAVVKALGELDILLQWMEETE
The experiment in a line: SPR (Biacore), IL-20 over amine coupled IL-20R2, equilibrium affinity (no rate constants).

Assay [4] concerns the target B4. The assay is described as follows: SPR co-injection: IL-20 (1000-31.25 nM) with soluble IL-20R2 fixed at 500 nM over IL-20R1-FC surface, 1:1 fit. As to the method: (§2) FIGS. 13A-13D are graphs showing stability of IL-19 and IL-20 ternary complexes. Stability of the ternary complexes were determined by co-injecting IL-19+soluble IL-20R2 (FIGS. 13B and 13D), or IL-20+soluble IL-20R2 (FIGS. 13A and 13C), over an IL-20R1-FC coupled surface. The concentration of soluble IL-20R2 in these experiments was fixed at 500 nM. IL-19 and IL-20 concentrations varied from 1000 nM to 31.25 nM (2 fold dilutions). IL-19/soluble IL-20R2 and IL-20/IL-20R2 were also injected over an IL-22R1 coupled surface. The SPR sensorgrams are labeled as injected proteins, followed by a semicolon (:), then the protein coupled to the chip surface, IL-20R1 or IL-22R1. All sensograms yielding binding responses were fit to 1:1 binding models.
(§3) Surface Plasmon Resonance Experiments SPR experiments were performed on Biacore T-100, and T-200, (GE healthcare, Waukesha, Wis.) systems. Soluble IL-20R2 was amine coupled (100-130 RU) to CM5 research grade biacore chips in 10 mM sodium acetate, pH 5.0. IL-20R1-FC and IL-20R2-FC were coupled (60-120 RU) to CM5 chips using an anti-FC Ab coupling kit using the manufacturer's instructions (GE healthcare, Waukesha, Wis.). All binding experiments were performed in running buffer consisting of 10 mM Hepes, pH 7.4, 150 mM NaCl, 0.04% P20, and 0.1 mg/mL bovine serum albumin (Sigma, St. Louis, Mo.). No regeneration was performed between sample injections on IL-20R2 amine-coupled surfaces. IL-20R1-FC and IL-20R2-FC surfaces were regenerated after each sample injection with a 3-minute injection of glycine, pH 1.7. Soluble proteins were injected for 75-90 seconds (30 uL/min) over the surfaces, and the dissociation phase was followed for 75-120 seconds depending on the stability of the complex being analyzed. Where possible, the resultant sensorgrams were fit to 1:1 binding models using Biacore T-200 evaluation software version 1.

Assay [5] addresses T4, IL-22R1 (sIL-22R1DDQ) (Homo sapiens (Human), UniProt Q8N6P7 16-226, limits assumed).
T4 chain: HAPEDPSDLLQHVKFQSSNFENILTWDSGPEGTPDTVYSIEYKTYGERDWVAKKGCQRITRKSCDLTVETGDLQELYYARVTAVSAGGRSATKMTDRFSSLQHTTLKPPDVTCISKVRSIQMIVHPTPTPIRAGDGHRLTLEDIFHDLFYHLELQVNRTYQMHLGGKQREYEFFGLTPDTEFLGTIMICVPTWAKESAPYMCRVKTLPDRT
The assay is described as follows: SPR co-injection: IL-20 (1000-31.25 nM) with soluble IL-20R2 fixed at 500 nM over IL-22R1 coupled surface, 1:1 fit. As to the method:
as §2, §3

The target in assay [6] is T3, IL-20. The assay is described as follows: SPR, site KD as listed in Table 5.
In assay [7] the target is T2, IL-19. The experiment in a line: SPR, IL-19 (10 µM, 2-fold diluted to 0.625 µM) injected over IL-20R1 (IL-20R1-fc in Table 4). The method, then:
as §1
(§4) Surface Plasmon Resonance Experiments SPR experiments were performed on Biacore T-100, and T-200, (GE healthcare, Waukesha, Wis.) systems. […] Soluble proteins were injected for 75-90 seconds (30 uL/min) over the surfaces, and the dissociation phase was followed for 75-120 seconds depending on the stability of the complex being analyzed. […]

The target of assay [8] is T3, IL-20. The assay is described as follows: SPR (Biacore), IL-20 (10-0.625 µM) over IL-20R1-fc captured by anti-FC Ab. The method, then:
as §1, §4

B1: IL-19/IL-20R2 binary complex (other)
chain 1: LRRCLISTDMHHIEESFQEIKRAIQAKDTFPNVTILSTLETLQIIKPLDVCCVTKNLLAFYVDRVFKDHQEPNPKILRKISSIANSFLYMQKTLRQCQEQRQCHCRQEATNATRVIHDNYDQLEVHAAAIKSLGELDVFLAWINKNHEVMFSA
chain 2: DEVAILPAPQQLSVLSTNMKHLLMWSPVIAPGETVYYSVEYQGEYESLYTSHIWIPSSWCSLTEGPECDVTDDITATVPYNLRVRATLGSQTSAWSILKHPFNRQSTILTRPGMEITKDGFHLVIELEDLGPQFEFLVAYWRREPGAEEHVKMVRSGGIPVHLETMEPGAAYCVKAQTFVKAIGRYSAFSQTECVEVQGEA
notes: IL-19 with IL-20R2 that carries no FC: amine coupled on the chip, or soluble; also called IL-19+soluble IL-20R2
On to B1, for which, in assay [1], the binding result is “no binding (tested: 425 nM M3 with 250 nM IL-19)”.

B2: soluble IL-20R2 (receptor)
chain: DEVAILPAPQQLSVLSTNMKHLLMWSPVIAPGETVYYSVEYQGEYESLYTSHIWIPSSWCSLTEGPECDVTDDITATVPYNLRVRATLGSQTSAWSILKHPFNRQSTILTRPGMEITKDGFHLVIELEDLGPQFEFLVAYWRREPGAEEHVKMVRSGGIPVHLETMEPGAAYCVKAQTFVKAIGRYSAFSQTECVEVQGEA
notes: also called IL-20R2* (amine coupled IL-20R2)
What is called Kd is the constant that tells how readily two partners part at equilibrium. In general, koff refers to the rate constant with which the complex falls apart. By kon is commonly meant the rate constant with which the complex forms. With B2, in assay [2], the Kd turned out to be 36.3 nM, the koff stood at 0.0398 s⁻¹ and the kon was 1.1e+06 M⁻¹ s⁻¹. For the same molecule, the Kd in assay [3] was found to be 870 nM.

B3: IL-20/IL-20R2 binary complex (other)
chain 1: MLKTLNLGSCVIATNLQEIRNGFSEIRGSVQAKDGNIDIRILRRTESLQDTKPANRCCLLRHLLRLYLDRVFKNYQTPDHYTLRKISSLANSFLTIKKDLRLCHAHMTCHCGEEAMKKYSQILSHFEKLEPQAAVVKALGELDILLQWMEETE
chain 2: DEVAILPAPQQLSVLSTNMKHLLMWSPVIAPGETVYYSVEYQGEYESLYTSHIWIPSSWCSLTEGPECDVTDDITATVPYNLRVRATLGSQTSAWSILKHPFNRQSTILTRPGMEITKDGFHLVIELEDLGPQFEFLVAYWRREPGAEEHVKMVRSGGIPVHLETMEPGAAYCVKAQTFVKAIGRYSAFSQTECVEVQGEA
notes: also called 20 + 20R2; IL-20+soluble IL-20R2
In the case of B3, in assay [4], the Kd was determined as 1070 nM, the off-rate (koff) worked out at 0.0168 s⁻¹ and the kon was found to be 15700 M⁻¹ s⁻¹. In assay [5], the Kd stood at 1160 nM, the koff stood at 0.238 s⁻¹ and the association rate constant (kon) was 205000 M⁻¹ s⁻¹.
As for B4, the Kd in assay [6] and in assay [8] was roughly 9000 nM throughout. In addition, in assay [7], the binding result was “no binding (tested: 10 µM)”.
